Data published in the Human Domainome abundance scans (Beltran et al. 2025).
± gives the uncertainty stated by the source.

B1: Glucocorticoid receptor, residues 419 to 494; numbered along this chain, P04150 (parent)
chain: KLCLVCSDEASGCHYGVLTCGSCKVFFKRAVEGQHNYLCAGRNDCIIDKIRRKNCPACRYRKCLQAGMNLEARKTK

Variants of: B1
Experiment: abundance fitness (aPCA) (normalised: wild type 0, dead -1); higher = more abundant; growth selection in yeast, the domain comes from the species named
Conditions: Homo sapiens
Variant KLCLVCSDEASGCHYGVLTCGSCKVFFKRAVEGQHNYLCAGRNDCIIDKIRRKNCPACRYHKCLQAGMNLEARKTK [R61H] has an abundance fitness of -0.079 ± 0.077. Variant KLCLVCSDEASGCHYGVLTCGSCKVFFKRAVEGQHNYLCAGRNDCIIDKIRRKNCPACRYPKCLQAGMNLEARKTK [R61P] has an abundance fitness of -0.854 ± 0.19. KLCLVCSDEASGCHYGVLTCGSCKVFFKRAVEGQHNYLCAGRNDCIIDKIRRKNCPACRYFKCLQAGMNLEARKTK [R61F] showed an abundance fitness of -0.13 ± 0.08. KLCLVCSDEASGCHYGVLTCGSCKVFFKRAVEGQHNYLCAGRNDCIIDKIRRKNCPACRYEKCLQAGMNLEARKTK [R61E] gave an abundance fitness of 0.026 ± 0.046. For KLCLVCSDEASGCHYGVLTCGSCKVFFKRAVEGQHNYLCAGRNDCIIDKIRRKNCPACRYGKCLQAGMNLEARKTK [R61G], the abundance fitness was -0.063 ± 0.031. KLCLVCSDEASGCHYGVLTCGSCKVFFKRAVEGQHNYLCAGRNDCIIDKIRRKNCPACRYLKCLQAGMNLEARKTK [R61L] gave an abundance fitness of 0 ± 0.039. With KLCLVCSDEASGCHYGVLTCGSCKVFFKRAVEGQHNYLCAGRNDCIIDKIRRKNCPACRYAKCLQAGMNLEARKTK [R61A] the abundance fitness was 0.054 ± 0.033. KLCLVCSDEASGCHYGVLTCGSCKVFFKRAVEGQHNYLCAGRNDCIIDKIRRKNCPACRYSKCLQAGMNLEARKTK [R61S] showed an abundance fitness of -0.004 ± 0.038. With KLCLVCSDEASGCHYGVLTCGSCKVFFKRAVEGQHNYLCAGRNDCIIDKIRRKNCPACRYIKCLQAGMNLEARKTK [R61I] the abundance fitness was -0.083 ± 0.085. Variant KLCLVCSDEASGCHYGVLTCGSCKVFFKRAVEGQHNYLCAGRNDCIIDKIRRKNCPACRYKKCLQAGMNLEARKTK [R61K] has an abundance fitness of -0.017 ± 0.05. Work on KLCLVCSDEASGCHYGVLTCGSCKVFFKRAVEGQHNYLCAGRNDCIIDKIRRKNCPACRYYKCLQAGMNLEARKTK [R61Y] yielded an abundance fitness of -0.089 ± 0.11. KLCLVCSDEASGCHYGVLTCGSCKVFFKRAVEGQHNYLCAGRNDCIIDKIRRKNCPACRYCKCLQAGMNLEARKTK [R61C] showed an abundance fitness of -0.112 ± 0.058. In the case of KLCLVCSDEASGCHYGVLTCGSCKVFFKRAVEGQHNYLCAGRNDCIIDKIRRKNCPACRYDKCLQAGMNLEARKTK [R61D], the abundance fitness is reported as 0.016 ± 0.064. KLCLVCSDEASGCHYGVLTCGSCKVFFKRAVEGQHNYLCAGRNDCIIDKIRRKNCPACRYVKCLQAGMNLEARKTK [R61V] showed an abundance fitness of 0.064 ± 0.035. For KLCLVCSDEASGCHYGVLTCGSCKVFFKRAVEGQHNYLCAGRNDCIIDKIRRKNCPACRYQKCLQAGMNLEARKTK [R61Q], the abundance fitness was 0.101 ± 0.048. For KLCLVCSDEASGCHYGVLTCGSCKVFFKRAVEGQHNYLCAGRNDCIIDKIRRKNCPACRYRECLQAGMNLEARKTK [K62E], the abundance fitness was -0.2 ± 0.049. Variant KLCLVCSDEASGCHYGVLTCGSCKVFFKRAVEGQHNYLCAGRNDCIIDKIRRKNCPACRYRCCLQAGMNLEARKTK [K62C] has an abundance fitness of 0.007 ± 0.062. KLCLVCSDEASGCHYGVLTCGSCKVFFKRAVEGQHNYLCAGRNDCIIDKIRRKNCPACRYRYCLQAGMNLEARKTK [K62Y] gave an abundance fitness of -0.187 ± 0.082. Variant KLCLVCSDEASGCHYGVLTCGSCKVFFKRAVEGQHNYLCAGRNDCIIDKIRRKNCPACRYRLCLQAGMNLEARKTK [K62L] has an abundance fitness of -0.048 ± 0.034. Variant KLCLVCSDEASGCHYGVLTCGSCKVFFKRAVEGQHNYLCAGRNDCIIDKIRRKNCPACRYRSCLQAGMNLEARKTK [K62S] has an abundance fitness of -0.166 ± 0.044. KLCLVCSDEASGCHYGVLTCGSCKVFFKRAVEGQHNYLCAGRNDCIIDKIRRKNCPACRYRRCLQAGMNLEARKTK [K62R] showed an abundance fitness of -0.05 ± 0.031. KLCLVCSDEASGCHYGVLTCGSCKVFFKRAVEGQHNYLCAGRNDCIIDKIRRKNCPACRYRDCLQAGMNLEARKTK [K62D] showed an abundance fitness of -0.336 ± 0.082. Variant KLCLVCSDEASGCHYGVLTCGSCKVFFKRAVEGQHNYLCAGRNDCIIDKIRRKNCPACRYRWCLQAGMNLEARKTK [K62W] has an abundance fitness of -0.505 ± 0.064. Variant KLCLVCSDEASGCHYGVLTCGSCKVFFKRAVEGQHNYLCAGRNDCIIDKIRRKNCPACRYRMCLQAGMNLEARKTK [K62M] has an abundance fitness of -0.042 ± 0.041. KLCLVCSDEASGCHYGVLTCGSCKVFFKRAVEGQHNYLCAGRNDCIIDKIRRKNCPACRYRTCLQAGMNLEARKTK [K62T] gave an abundance fitness of -0.047 ± 0.042. Work on KLCLVCSDEASGCHYGVLTCGSCKVFFKRAVEGQHNYLCAGRNDCIIDKIRRKNCPACRYRGCLQAGMNLEARKTK [K62G] yielded an abundance fitness of -0.105 ± 0.033. In the case of KLCLVCSDEASGCHYGVLTCGSCKVFFKRAVEGQHNYLCAGRNDCIIDKIRRKNCPACRYRFCLQAGMNLEARKTK [K62F], the abundance fitness is reported as -0.158 ± 0.073. With KLCLVCSDEASGCHYGVLTCGSCKVFFKRAVEGQHNYLCAGRNDCIIDKIRRKNCPACRYRACLQAGMNLEARKTK [K62A] the abundance fitness was -0.015 ± 0.034. For KLCLVCSDEASGCHYGVLTCGSCKVFFKRAVEGQHNYLCAGRNDCIIDKIRRKNCPACRYRQCLQAGMNLEARKTK [K62Q], the abundance fitness was -0.066 ± 0.049. Variant KLCLVCSDEASGCHYGVLTCGSCKVFFKRAVEGQHNYLCAGRNDCIIDKIRRKNCPACRYRNCLQAGMNLEARKTK [K62N] has an abundance fitness of -0.031 ± 0.081. In the case of KLCLVCSDEASGCHYGVLTCGSCKVFFKRAVEGQHNYLCAGRNDCIIDKIRRKNCPACRYRVCLQAGMNLEARKTK [K62V], the abundance fitness is reported as -0.119 ± 0.034. With KLCLVCSDEASGCHYGVLTCGSCKVFFKRAVEGQHNYLCAGRNDCIIDKIRRKNCPACRYRPCLQAGMNLEARKTK [K62P] the abundance fitness was -0.867 ± 0.11. In the case of KLCLVCSDEASGCHYGVLTCGSCKVFFKRAVEGQHNYLCAGRNDCIIDKIRRKNCPACRYRKALQAGMNLEARKTK [C63A], the abundance fitness is reported as -0.28 ± 0.039. KLCLVCSDEASGCHYGVLTCGSCKVFFKRAVEGQHNYLCAGRNDCIIDKIRRKNCPACRYRKDLQAGMNLEARKTK [C63D] showed an abundance fitness of -0.915 ± 0.24. KLCLVCSDEASGCHYGVLTCGSCKVFFKRAVEGQHNYLCAGRNDCIIDKIRRKNCPACRYRKELQAGMNLEARKTK [C63E] showed an abundance fitness of -0.871 ± 0.11. For KLCLVCSDEASGCHYGVLTCGSCKVFFKRAVEGQHNYLCAGRNDCIIDKIRRKNCPACRYRKFLQAGMNLEARKTK [C63F], the abundance fitness was -0.322 ± 0.11.
